# Data from PMC8391708, “Anti-Inflammatory Effects of C1q/Tumor Necrosis Factor-Related Protein 3 (CTRP3) in Endothelial Cells” (Cells, 2021).
# B1: C1q/TNF-related protein 3 (CTRP3), recombinant (natural protein, human, UniProt Q9BXJ4 23-246, looked up)
# chain: QDEYMESPQTGGLPPDCSKCCHGDYSFRGYQGPPGPPGPPGIPGNHGNNGNNGATGHEGAKGEKGDKGDLGPRGERGQHGPKGEKGYPGIPPELQIAFMASLATHFSNQNSGIIFSSVETNIGNFFDVMTGRFGAPVSGVYFFTFSMMKHEDVEEVYVYLMHNGNTVFSMYSYEMKGKSDTSSNHAVLKLAKGDEVWLRMGNGALHGDHQRFSTFAGFLLFETK
# notes: C1q/TNF-related protein 3 (CTRP3), human, recombinant; also called C1q/Tumor Necrosis Factor-Related Protein 3; recombinant human CTRP3; source: baculovirus expression system in insect H5 cells
# Target: the molecule itself
# Experiment: SDS-PAGE; recombinant CTRP3 run on SDS-polyacrylamide gels, stained with Coomassie; band at <100 kDa read as a trimer
protein,measurement,value
B1,stoichiometry N,3
